Laboratory results reported in US6602854B1, “Branched multimeric Apo A-I agonist compounds” (priority 1997, dated 2003).
Where no end group is shown, it is not given here. [ ]: non-standard residue; d: D form. Nal = non-natural residue; Aib = CC(C)(N)C(=O)O

Key:
[1] = Circular dichroism: degree of helicity (free, SUVs, micelles, TFE); details: for He (%) free: percent helicity of free, unbound peptide; for He (%) SUVs: percent helicity of peptide-SUV complexes; for He (%) TFE: percent helicity of peptide-TFE solution; for He (%) mics: percent helicity of peptide-micelle complexes
Protocol: Far UV circular dichroism spectra were recorded between 190 and 260 nm (in 0.5 nm or 0.2 nm increments) with a AVIV62DS spectrometer (AVIV Associates, Lakewood, N.J., USA) equipped with a thermoelectric cell holder and sample changer. The instrument was calibrated with (+)-10-camphoric acid. Between one and three scans were collected for each sample, using 10 cm, 5 cm, 1 cm and 0.1 cm path length quartz Suprasil cells, respectively, for peptide concentrations of 10^−7 M to 10^−4 M. The bandwidth was fixed at 1.5 nm and the scan speed to 1 s per wavelength step. The reported data are the mean of at least 2 or 3 independent measurements.
After background substraction, spectra were converted to molar ellipticity (θ) per residue in deg. […] dmol^−1. The peptide concentration was determined by amino acid analysis and also by absorption spectrometry on a Perkin Elmer Lambda 17 UV/Visible spectrophotometer when the peptide contained a chromophore (tryptophane, dansyl, naphtylalanine).
CD spectra were obtained with free, unbound peptide (5 μM in 5 mM phosphate buffer, pH 7.4); with peptide-SUV complexes (20:1 EPC:Chol., Ri=30 and Ri=50); with peptide-micelle complexes (1-myristoyl-2-hydroxy-sn-glycero-3-phosphatidyl choline, Ri=100); and with free, unbound peptide in the presence of 2,2,2-trifluoroethanol (TFE) (5 μM peptide, 90% vol TFE).
The SUVs were obtained by dispersing the lipids (10 mM, 20:1 EPC:Chol., Avanti Polar Lipids, Ala.) in phosphate buffer (5 mM, pH 7.4) with bubbling N2 for 5 min., followed by sonication (1.5 hr.) in a bath sonicator. The homogeneity of the preparation was checked by FPLC.
The micelles were obtained by dispersing the lipid (6 mM 1-myristoyl-2-hydroxy-sn-glycero-3-phosphatidyl choline, Avanti Polar Lipids, AL) in phosphate buffer (5 mM, pH 7.4) with bubbling N2 for 5 min., followed by vortexing.
To obtain the peptide-SUV complexes, SUVs were added to the peptide (5 μM in 5 mM phosphate buffer, pH 7.4) at a phospholipid-peptide molar ratio (Ri) of 30 or 50.
To obtain the peptide-micelle complexes, micelles were added to the peptide (5 μM in 5 mM phosphate buffer, pH 7.4) at a Ri of 100.
All spectra were recorded at 37° C. The stability of peptide 4 (SEQ ID NO:4) as a function of temperature (both free in buffer and in micelles) was determined by recording spectra at a series of different temperatures.
The degree of helicity of peptide 4 (SEQ ID NO:4) as a function of concentration was also determined.
The degree of helicity of the peptides in the various conditions was determined from the mean residue ellipticity at 222 nm (Chen et al., 1974, Biochemistry 13:3350-3359) or by comparing the CD spectra obtained to reference spectra available on databases (16 helical reference spectra from Provencher & Glockner, 1981, Biochemistry 20:33-37; denatured protein reference spectra from Venyaminov et al., 1993, Anal. Biochem. 214:17-24) using the CONTIN curve-fitting algorithm version 2DP, CD-1 pack (Aug. 1982) (Provencher, 1982, Comput. Phys. Commun. 27:213-227, 229-242). Acceptable fit was determined using the statistical analysis methodology provided by the CONTIN algorithm.

[2] = HDL cholesterol in rabbits after injection of phospholipid/peptide complexes; type: in vivo, Male New Zealand White rabbits
Protocol: Small discoidal particles consisting of phospholipid (DPPC) and peptide were prepared following the cholate dialysis method. The phospholipid was dissolved in chloroform and dried under a stream of nitrogen. The peptide was dissolved in buffer (saline) at a concentration of 1-2 mg/ml. The lipid film was redissolved in buffer containing cholate (43° C.) and the peptide solution was added at a 3:1 phospholipid/peptide weight ratio. The mixture was incubated overnight at 43° C. and then dialyzed at 43° C. (24 hr.), room temperature (24 hr.) and 4° C. (24 hr.), with three changes of buffer (large volumes) at temperature point. The complexes were filter sterilized (0.22 μm) for injection and storage at 4° C.
Male New Zealand White rabbits (2.5-3 kg) were injected intravenously with a dose of phospholipid/peptide complex (5 or 10 mg/kg bodyweight, expressed as peptide) in a single bolus injection not exceeding 10-15 ml. The animals were slightly sedated before the manipulations. Blood samples (collected on EDTA) were taken before and 5, 15, 30, 60, 240 and 1440 minutes after injection. The hematocrit (Hct) was determined for each sample. Samples were aliquoted and stored at −20° C. before analysis.
Plasma Lipids. The total plasma cholesterol, plasma triglycerides and plasma phospholipids were determined enzymatically using commercially available assays according to the manufacturer's protocols (Boehringer Mannheim, Mannheim, Germany and Biomerieux, 69280, Marcy-L'étoile, France).
Lipoprotein Profiles. The plasma lipoprotein profiles of the fractions obtained after the separation of the plasma into its lipoprotein fractions were determined by spinning in a sucrose density gradient. The fractions were collected and in each individual fraction the phospholipid and cholesterol content was measured enzymatically.

| Substance | He (%) free [1] | He (%) SUVs [1] | He (%) TFE [1] | He (%) mics [1] | further results |
| --- | --- | --- | --- | --- | --- |
| 210 (PVLDLFRELLEELKQKLK) [compound 210] | 20% | 37% | 53% | 63% | – |
| 215 (Ac-PVLDLFRELLEEWKQKLK-NH2) [compound 215] | 28% | 53% | 68% | 63% | – |
| 217 (PVLDLFRELLELLKQKLK) [compound 217] | 52% | 76% | 70% | 78% | – |
| 220 (PVLDLFRELLEELQKKLK) [compound 220] | 27% | 54% | 64% | 64% | – |
| 223 (PVLDAFRELLEALAQLKK) [compound 223] | 21% | 23% | 51% | 56% | – |
| 240 (Ac-DWLKAFYDKVAEKLKEAF-NH2) [compound 240] | 16% | 59% | 57% | 68% | – |
| DWFKAFYDKVAEKFKEAF [peptide 243, reference compound] | 10% | 50% | – | 64% | – |
| DWLKAFYDKVAEKLKEAF [peptide 244, reference compound] | 9% | 13% | 48% | 40% | – |
| DWLKAFYDKVFEKFKEFF [peptide 245, reference compound] | 38% | 70% | – | 77% | – |
| EWLKAFYEKVLEKLKELF [peptide 248, reference compound] | 18% | 13% | – | 45% | – |
| EWLKAFYEKVLEKLKELF* [peptide 238, reference compound] | 49% | 60% | 58% | 72% | – |
| LDDLLQKWAEAFNQLLKK [peptide 237, reference compound] | 30% | 45% | – | 66% | – |
| PVLDEFREKLNEALEALKQKLK [peptide 94, reference compound] | 18% | 27% | 63% | 70% | – |
| PVLDEFREKLNERLEALKQKLK [peptide 109, reference compound] | 19% | 23% | 58% | 45% | – |
| PVLDFFRELLNEXLEALKQKLK (PVLDFFRELLNE[Aib]LEALKQKLK) [peptide 25] | 46% | – | 93% | 82% | – |
| PVLDLFKELLNELLEALKQKLK [peptide 7] | 77% | 85% | 73% | 89% | – |
| PVLDLFRELLNEGLEALKQKLK [peptide 8] | 20% | 61% | 93% | 90% | % helicity in the presence of TFE [1]: 93%; helical structure in the presence of lipids [1]: 61-93%; % Helicity Free ([1]; peptide concentration 5.0 μM, free in buffer): 20% |
| PVLDLFRELLNELLEWLKQKLK [peptide 3] | 70% | 80% | 95% | 95% | Increase (%) in HDL cholesterol ([2]; 10 mg/kg as peptide/DPPC complexes, 15 min): 84%; Increase (%) in HDL cholesterol ([2]; 10 mg/kg as peptide/DPPC complexes, 30 min): 71%; Increase (%) in HDL cholesterol ([2]; 10 mg/kg as peptide/DPPC complexes, 60 min): 60%; Increase (%) in HDL cholesterol ([2]; 10 mg/kg as peptide/DPPC complexes, 240 min): 14.5% |
| PVLDLFRELLNELLEZLKQKLK (PVLDLFRELLNELLE[Nal]LKQKLK; not fully specified) [peptide 1, Z is Nal] | 77% | 81% | 69% | 85% | Increase (%) in HDL cholesterol ([2]; 5 mg/kg as peptide/DPPC complexes, 15 min): 24.3%; Increase (%) in HDL cholesterol ([2]; 5 mg/kg as peptide/DPPC complexes, 30 min): 95%; Increase (%) in HDL cholesterol ([2]; 5 mg/kg as peptide/DPPC complexes, 60 min): 40.7%; Increase (%) in HDL cholesterol ([2]; 5 mg/kg as peptide/DPPC complexes, 240 min): 29% |
| PVLDLFRELLNELWEALKQKLK [peptide 28] | 82% | 90% | 81% | 98% | – |
| PVLDLFRELLNEXLEALKQKLK (PVLDLFRELLNE[Aib]LEALKQKLK) [peptide 6] | 57% | 70% | 99% | 93% | – |
